According to patent publication US20150258192A1, “COMPOSITIONS AND METHODS FOR PREVENTING OR TREATING CHRONIC LUNG ALLOGRAFT DYSFUNCTION (CLAD) AND IDIOPATHIC PULMONARY FIBROSIS (IPF)” (priority 2014, published 2015):
No end group written: not given here.

target: AMPKα1(h) (Homo sapiens, UniProt Q13131); experiment: Kinase Profiling Assay; format: biochemical; settings: peptide 100 μM
In short: (§1)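 Activity remaining relative to an uninhibited control was determined by scintillation counting of labeled substrate bound to a negatively charged filter. Radiolabeled phosphate came from ATP; the substrate carried positive charge. Duplicate measurements, within a 266-kinase human panel.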

Chain of AMPKα1(h) (Q13131 whole entry): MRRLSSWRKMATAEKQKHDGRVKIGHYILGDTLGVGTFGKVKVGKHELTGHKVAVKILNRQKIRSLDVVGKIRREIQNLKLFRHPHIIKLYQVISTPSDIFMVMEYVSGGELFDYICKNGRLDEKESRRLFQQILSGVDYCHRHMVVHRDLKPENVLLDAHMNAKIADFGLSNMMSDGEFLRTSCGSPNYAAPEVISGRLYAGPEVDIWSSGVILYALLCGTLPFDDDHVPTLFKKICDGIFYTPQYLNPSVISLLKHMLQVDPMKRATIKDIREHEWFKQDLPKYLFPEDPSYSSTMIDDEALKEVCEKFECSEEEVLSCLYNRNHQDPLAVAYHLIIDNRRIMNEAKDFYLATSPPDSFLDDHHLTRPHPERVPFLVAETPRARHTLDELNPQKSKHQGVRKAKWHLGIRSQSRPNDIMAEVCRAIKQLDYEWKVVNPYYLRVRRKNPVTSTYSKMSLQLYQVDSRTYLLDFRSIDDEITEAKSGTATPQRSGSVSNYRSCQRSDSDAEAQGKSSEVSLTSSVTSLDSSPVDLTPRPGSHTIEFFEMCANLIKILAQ
Chain of AMPKα1(h) (Q9Y478 whole entry partner): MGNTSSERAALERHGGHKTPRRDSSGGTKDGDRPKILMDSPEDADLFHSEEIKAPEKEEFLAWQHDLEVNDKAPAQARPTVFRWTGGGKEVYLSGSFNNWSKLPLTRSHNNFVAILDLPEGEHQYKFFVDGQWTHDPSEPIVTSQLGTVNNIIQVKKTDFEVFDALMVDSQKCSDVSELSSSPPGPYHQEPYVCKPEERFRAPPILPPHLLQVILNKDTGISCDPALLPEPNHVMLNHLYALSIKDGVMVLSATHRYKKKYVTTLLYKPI
Chain of AMPKα1(h) (P54619 whole entry partner): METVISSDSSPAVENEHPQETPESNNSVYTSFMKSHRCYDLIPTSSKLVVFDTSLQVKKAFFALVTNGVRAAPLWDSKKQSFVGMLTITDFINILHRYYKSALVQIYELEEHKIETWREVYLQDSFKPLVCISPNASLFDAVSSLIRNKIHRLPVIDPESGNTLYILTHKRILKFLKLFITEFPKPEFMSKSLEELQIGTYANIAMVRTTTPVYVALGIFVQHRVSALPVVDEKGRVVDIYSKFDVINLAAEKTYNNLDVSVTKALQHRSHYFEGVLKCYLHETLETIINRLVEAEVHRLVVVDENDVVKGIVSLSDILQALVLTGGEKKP

Sequence | % activity [%]
FAKLAARLYRKALARQLGVAA [MMI-0300] | 71
HRRIKAWLKKIKALARQLGVAA (Mammal) [MMI-0500] | 35
KAFAKLAARLYRKALARQLGVAA [MMI-0400] | 87
YARAAARQARAKALNRQLGVA (Mammal) [MMI-0200] | 108

target: T1, MARK1(h) (Homo sapiens, UniProt Q9P0L2); experiment: Kinase Profiling Assay; format: biochemical; settings: peptide 100 μM
T1 construct: purchased Millipore
In short: as §1

T1 sequence (Q9P0L2 whole entry): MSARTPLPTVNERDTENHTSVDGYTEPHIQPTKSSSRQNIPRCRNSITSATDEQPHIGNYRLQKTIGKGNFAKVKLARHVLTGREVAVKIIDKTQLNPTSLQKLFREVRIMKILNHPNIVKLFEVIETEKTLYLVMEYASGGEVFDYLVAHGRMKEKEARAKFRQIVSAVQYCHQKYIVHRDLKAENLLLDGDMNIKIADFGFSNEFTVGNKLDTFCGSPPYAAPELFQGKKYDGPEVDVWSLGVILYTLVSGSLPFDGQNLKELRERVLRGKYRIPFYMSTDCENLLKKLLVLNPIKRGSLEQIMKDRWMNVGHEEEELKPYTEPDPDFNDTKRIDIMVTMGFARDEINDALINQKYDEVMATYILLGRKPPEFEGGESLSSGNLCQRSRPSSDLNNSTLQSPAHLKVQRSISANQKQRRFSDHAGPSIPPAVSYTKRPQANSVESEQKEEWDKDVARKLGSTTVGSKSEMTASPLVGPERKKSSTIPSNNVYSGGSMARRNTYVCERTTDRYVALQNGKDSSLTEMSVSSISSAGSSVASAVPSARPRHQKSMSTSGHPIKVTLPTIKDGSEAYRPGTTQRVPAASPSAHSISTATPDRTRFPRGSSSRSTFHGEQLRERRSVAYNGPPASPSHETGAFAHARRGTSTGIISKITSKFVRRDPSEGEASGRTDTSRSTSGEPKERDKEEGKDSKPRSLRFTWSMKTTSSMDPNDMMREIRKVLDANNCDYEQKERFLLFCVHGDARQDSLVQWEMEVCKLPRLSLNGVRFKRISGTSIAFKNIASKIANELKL

Sequence | % activity [%]
FAKLAARLYRKALARQLGVAA [MMI-0300] | 132
HRRIKAWLKKIKALARQLGVAA (Mammal) [MMI-0500] | 110
KAFAKLAARLYRKALARQLGVAA [MMI-0400] | 120

target: T2, TBK1(h) (Homo sapiens, UniProt Q9UHD2); experiment: Kinase Profiling Assay; format: biochemical; settings: peptide 100 μM
T2 construct: purchased Millipore
T2 sequence (Q9UHD2 1-729): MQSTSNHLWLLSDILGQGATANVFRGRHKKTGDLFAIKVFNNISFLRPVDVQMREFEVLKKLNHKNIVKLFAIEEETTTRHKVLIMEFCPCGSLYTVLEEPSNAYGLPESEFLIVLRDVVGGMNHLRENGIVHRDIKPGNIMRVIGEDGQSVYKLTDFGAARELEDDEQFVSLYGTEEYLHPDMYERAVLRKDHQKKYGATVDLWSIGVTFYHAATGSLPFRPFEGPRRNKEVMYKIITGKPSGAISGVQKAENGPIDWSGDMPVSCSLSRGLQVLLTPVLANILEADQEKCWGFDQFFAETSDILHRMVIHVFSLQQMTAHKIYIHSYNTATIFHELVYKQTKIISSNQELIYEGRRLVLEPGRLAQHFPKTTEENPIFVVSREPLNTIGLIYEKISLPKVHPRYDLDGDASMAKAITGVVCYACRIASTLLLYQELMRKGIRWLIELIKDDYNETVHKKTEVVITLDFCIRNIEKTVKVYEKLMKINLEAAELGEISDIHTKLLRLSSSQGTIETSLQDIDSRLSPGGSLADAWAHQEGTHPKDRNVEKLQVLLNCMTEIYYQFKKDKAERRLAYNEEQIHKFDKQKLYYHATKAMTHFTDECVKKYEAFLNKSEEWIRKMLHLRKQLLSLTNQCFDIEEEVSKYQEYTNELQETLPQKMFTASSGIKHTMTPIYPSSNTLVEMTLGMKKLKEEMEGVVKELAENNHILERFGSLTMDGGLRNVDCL
In short: as §1

Sequence | % activity [%]
FAKLAARLYRKALARQLGVAA [MMI-0300] | 37
HRRIKAWLKKIKALARQLGVAA (Mammal) [MMI-0500] | 16
KAFAKLAARLYRKALARQLGVAA [MMI-0400] | 39
YARAAARQARAKALNRQLGVA (Mammal) [MMI-0200] | 98

target: CaMKIIγ(h) (Homo sapiens, UniProt Q13555); experiment: Kinase Profiling Assay; format: biochemical; settings: peptide 100 μM
In short: as §1

Chain of CaMKIIγ(h) (Q13555 whole entry): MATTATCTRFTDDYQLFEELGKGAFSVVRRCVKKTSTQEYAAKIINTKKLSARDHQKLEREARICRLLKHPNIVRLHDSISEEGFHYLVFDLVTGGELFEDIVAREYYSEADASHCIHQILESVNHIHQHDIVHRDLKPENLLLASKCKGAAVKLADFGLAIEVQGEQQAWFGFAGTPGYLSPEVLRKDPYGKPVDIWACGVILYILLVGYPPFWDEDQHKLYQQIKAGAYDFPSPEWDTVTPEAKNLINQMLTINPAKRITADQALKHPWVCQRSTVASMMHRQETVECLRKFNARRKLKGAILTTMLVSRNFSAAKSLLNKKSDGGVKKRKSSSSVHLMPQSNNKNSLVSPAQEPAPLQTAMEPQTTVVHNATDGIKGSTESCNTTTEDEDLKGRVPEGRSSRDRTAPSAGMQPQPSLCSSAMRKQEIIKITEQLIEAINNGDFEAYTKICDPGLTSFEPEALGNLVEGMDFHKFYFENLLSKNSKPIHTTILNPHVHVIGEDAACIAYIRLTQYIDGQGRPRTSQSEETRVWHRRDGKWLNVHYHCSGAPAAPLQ

Sequence | % activity [%]
FAKLAARLYRKALARQLGVAA [MMI-0300] | 5
HRRIKAWLKKIKALARQLGVAA (Mammal) [MMI-0500] | 3
KAFAKLAARLYRKALARQLGVAA [MMI-0400] | 3
YARAAARQARAKALNRQLGVA (Mammal) [MMI-0200] | 94

target: T3, PAK4(h) (Homo sapiens, UniProt O96013); experiment: Kinase Profiling Assay; format: biochemical; settings: peptide 100 μM
T3 construct: purchased Millipore
In short: as §1

T3 sequence (O96013 whole entry): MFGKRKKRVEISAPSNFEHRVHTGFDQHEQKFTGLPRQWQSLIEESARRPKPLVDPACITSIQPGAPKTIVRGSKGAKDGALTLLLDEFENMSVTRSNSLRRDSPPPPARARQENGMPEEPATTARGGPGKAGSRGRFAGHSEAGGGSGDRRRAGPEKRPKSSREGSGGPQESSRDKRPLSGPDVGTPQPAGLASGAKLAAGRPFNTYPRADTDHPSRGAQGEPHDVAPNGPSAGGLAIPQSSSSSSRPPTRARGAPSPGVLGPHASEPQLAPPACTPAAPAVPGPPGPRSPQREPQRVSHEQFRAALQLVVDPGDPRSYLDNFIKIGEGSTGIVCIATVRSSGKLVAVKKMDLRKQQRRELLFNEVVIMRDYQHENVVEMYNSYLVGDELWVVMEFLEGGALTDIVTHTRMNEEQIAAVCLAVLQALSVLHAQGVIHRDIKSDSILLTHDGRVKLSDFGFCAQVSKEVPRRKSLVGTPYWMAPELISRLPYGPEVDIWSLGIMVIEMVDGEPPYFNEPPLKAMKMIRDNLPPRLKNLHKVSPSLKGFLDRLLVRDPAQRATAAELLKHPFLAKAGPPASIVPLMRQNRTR

Sequence | % activity [%]
FAKLAARLYRKALARQLGVAA [MMI-0300] | 94
HRRIKAWLKKIKALARQLGVAA (Mammal) [MMI-0500] | 86
KAFAKLAARLYRKALARQLGVAA [MMI-0400] | 89
YARAAARQARAKALARQLGVAA [MMI-0100] | 92
YARAAARQARAKALNRQLGVA (Mammal) [MMI-0200] | 98

target: T4, EphB3(h) (Homo sapiens, UniProt P54753); experiment: Kinase Profiling Assay; format: biochemical; settings: peptide 100 μM
T4 sequence (P54753 34-998): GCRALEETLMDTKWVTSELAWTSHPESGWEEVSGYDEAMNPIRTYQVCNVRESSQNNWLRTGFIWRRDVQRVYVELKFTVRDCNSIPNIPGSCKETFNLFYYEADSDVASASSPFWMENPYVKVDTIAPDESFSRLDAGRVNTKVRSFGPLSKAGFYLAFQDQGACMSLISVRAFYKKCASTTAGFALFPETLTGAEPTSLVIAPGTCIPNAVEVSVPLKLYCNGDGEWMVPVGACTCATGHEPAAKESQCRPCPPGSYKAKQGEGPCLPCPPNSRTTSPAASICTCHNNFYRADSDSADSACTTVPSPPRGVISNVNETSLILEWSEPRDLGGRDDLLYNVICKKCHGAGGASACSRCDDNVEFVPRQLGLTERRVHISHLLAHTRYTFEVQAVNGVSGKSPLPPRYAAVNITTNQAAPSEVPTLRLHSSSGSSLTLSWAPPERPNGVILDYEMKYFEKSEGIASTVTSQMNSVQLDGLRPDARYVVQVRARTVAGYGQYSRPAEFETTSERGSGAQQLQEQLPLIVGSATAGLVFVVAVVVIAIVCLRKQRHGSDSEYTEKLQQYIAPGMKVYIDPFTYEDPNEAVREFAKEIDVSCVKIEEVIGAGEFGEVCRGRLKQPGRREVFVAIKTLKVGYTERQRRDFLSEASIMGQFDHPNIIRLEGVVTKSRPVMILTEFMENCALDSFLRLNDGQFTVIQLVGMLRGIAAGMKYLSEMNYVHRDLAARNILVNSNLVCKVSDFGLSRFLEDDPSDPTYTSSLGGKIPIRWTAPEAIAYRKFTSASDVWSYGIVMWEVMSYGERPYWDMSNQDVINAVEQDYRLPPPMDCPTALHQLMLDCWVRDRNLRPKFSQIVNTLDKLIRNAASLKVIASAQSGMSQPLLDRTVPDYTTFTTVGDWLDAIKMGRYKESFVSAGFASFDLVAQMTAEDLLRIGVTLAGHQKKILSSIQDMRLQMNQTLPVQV
In short: as §1

Sequence | % activity [%]
FAKLAARLYRKALARQLGVAA [MMI-0300] | 62
HRRIKAWLKKIKALARQLGVAA (Mammal) [MMI-0500] | 79
KAFAKLAARLYRKALARQLGVAA [MMI-0400] | 47
YARAAARQARAKALNRQLGVA (Mammal) [MMI-0200] | 128

target: FGFR1(V561M)(h) (Homo sapiens, UniProt P11362, V561M); experiment: Kinase Profiling Assay; format: biochemical; settings: peptide 100 μM
In short: as §1

Chain of FGFR1(V561M)(h) (P11362 22-822 V561M): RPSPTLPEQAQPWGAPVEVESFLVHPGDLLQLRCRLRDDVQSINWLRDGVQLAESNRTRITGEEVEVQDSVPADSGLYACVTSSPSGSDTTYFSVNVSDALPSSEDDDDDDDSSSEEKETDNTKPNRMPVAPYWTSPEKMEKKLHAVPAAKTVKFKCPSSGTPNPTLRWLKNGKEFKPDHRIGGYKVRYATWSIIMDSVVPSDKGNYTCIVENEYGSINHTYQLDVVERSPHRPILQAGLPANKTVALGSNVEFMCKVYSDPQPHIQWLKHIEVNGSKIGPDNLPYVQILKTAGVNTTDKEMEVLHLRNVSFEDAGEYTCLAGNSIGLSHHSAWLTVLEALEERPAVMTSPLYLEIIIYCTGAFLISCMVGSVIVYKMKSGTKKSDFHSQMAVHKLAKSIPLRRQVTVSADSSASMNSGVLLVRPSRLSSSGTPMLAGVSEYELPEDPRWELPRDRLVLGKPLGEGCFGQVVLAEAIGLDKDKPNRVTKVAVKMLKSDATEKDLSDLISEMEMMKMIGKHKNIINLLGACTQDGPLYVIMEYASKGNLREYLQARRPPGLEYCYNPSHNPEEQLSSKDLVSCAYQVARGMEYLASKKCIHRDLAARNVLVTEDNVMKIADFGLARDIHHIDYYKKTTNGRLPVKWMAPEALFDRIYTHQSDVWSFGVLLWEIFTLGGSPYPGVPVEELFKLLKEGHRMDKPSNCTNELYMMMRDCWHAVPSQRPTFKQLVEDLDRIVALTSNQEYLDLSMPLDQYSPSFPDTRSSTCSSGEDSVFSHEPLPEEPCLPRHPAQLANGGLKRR

Sequence | % activity [%]
FAKLAARLYRKALARQLGVAA [MMI-0300] | 74
KAFAKLAARLYRKALARQLGVAA [MMI-0400] | 74
YARAAARQARAKALARQLGVAA [MMI-0100] | 108
YARAAARQARAKALNRQLGVA (Mammal) [MMI-0200] | 72

target: PKBβ(h) (Homo sapiens, UniProt P31751); experiment: Kinase Profiling Assay; format: biochemical; settings: peptide 100 μM
In short: as §1

Chain of PKBβ(h) (P31751 whole entry): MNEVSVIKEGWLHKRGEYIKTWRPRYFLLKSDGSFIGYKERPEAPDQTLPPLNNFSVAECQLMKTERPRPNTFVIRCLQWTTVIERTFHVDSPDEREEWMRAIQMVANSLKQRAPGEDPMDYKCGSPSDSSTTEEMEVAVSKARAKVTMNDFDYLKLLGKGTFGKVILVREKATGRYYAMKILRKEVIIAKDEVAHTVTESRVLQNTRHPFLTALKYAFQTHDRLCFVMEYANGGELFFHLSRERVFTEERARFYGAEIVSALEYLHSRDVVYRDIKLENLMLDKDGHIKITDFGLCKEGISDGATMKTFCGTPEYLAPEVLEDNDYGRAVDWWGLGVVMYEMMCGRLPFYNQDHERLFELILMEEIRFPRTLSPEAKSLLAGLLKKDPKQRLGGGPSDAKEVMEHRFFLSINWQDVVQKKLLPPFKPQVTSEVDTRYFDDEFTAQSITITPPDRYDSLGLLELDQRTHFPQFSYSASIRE

Sequence | % activity [%]
FAKLAARLYRKALARQLGVAA [MMI-0300] | 84
HRRIKAWLKKIKALARQLGVAA (Mammal) [MMI-0500] | 21
KAFAKLAARLYRKALARQLGVAA [MMI-0400] | 98
YARAAARQARAKALNRQLGVA (Mammal) [MMI-0200] | 250

target: T5, MKK6(h) (Homo sapiens, UniProt P52564); experiment: Kinase Profiling Assay; format: biochemical; settings: peptide 100 μM
T5 construct: purchased Millipore
T5 sequence (P52564 1-334): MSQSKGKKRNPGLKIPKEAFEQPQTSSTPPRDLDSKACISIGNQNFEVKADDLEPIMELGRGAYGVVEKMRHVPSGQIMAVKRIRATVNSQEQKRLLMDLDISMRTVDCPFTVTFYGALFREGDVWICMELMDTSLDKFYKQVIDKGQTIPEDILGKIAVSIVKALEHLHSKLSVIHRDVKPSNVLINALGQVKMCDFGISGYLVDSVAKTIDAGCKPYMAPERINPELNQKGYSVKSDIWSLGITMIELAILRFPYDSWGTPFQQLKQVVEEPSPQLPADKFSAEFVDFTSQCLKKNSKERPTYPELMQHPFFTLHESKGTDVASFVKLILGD
In short: as §1

Sequence | % activity [%]
FAKLAARLYRKALARQLGVAA [MMI-0300] | 48
HRRIKAWLKKIKALARQLGVAA (Mammal) [MMI-0500] | 18
KAFAKLAARLYRKALARQLGVAA [MMI-0400] | 44
YARAAARQARAKALNRQLGVA (Mammal) [MMI-0200] | 98
